The record followed here is patent US20100261620A1 (published 2010).

First the molecules themselves.
B1: M453 (antibody, V domains shown)
VH: QVTLKESGPVLVKPTETLTLTCTVSGFSLSTYGMGVGWIRQPPGKALEWLAHIWWDDVKRYNPALKSRLTISKDTSKSQVVLTMTNMDPVDTATYYCARMGSDYDVWFDYWGQGTLVTVSS
VL: EIVLTQSPATLSLSPGERATLSCRASKSISKYLAWYQQKPGQAPRLLIYSGSTLQSGIPARFSGSGSGTDFTLTISSLEPEDFAVYYCQQHDWGPYTFGQGTKLEIK
notes: anti-IL-13, human IgG1
B2: H2L6 HFS variant (antibody, V domains shown)
VH: QVTLKESGPVLVKPTETLTLTCTVSGFSLSTYGMGVGWIRQPPGKALEWLAHIWWDDVKRYNPALKSRLTISKDTSKSQVVLTMTNMDPVDTATYYCARMGSDYDVWFDYWGQGTLVTVSS
VL: EIVLTQSPATLSLSPGERATLSCRASKSISKYLAWYQQKPGQAPRLLIYSGSTLQSGIPARFSGSGSGTDFTLTISSLEPEDFAVYYCQQHNEYPYTFGQGTKLEIK
notes: IgG1; also called IL13-62
B3: M443 (antibody, V domains shown)
VH: QVTLKESGPVLVKPTETLTLTCTVSGFSLSTYGMGVGWIRQPPGKALEWLAHIWWDDVKRYNPALKSRLTISKDTSKSQVVLTMTNMDPVDTATYYCARMGSDYDVWFDYWGQGTLVTVSS
VL: EIVLTQSPATLSLSPGERATLSCRASKSISKYLAWYQQKPGQAPRLLIYSGSTLQSGIPARFSGSGSGTDFTLTISSLEPEDFAVYYCQQHSWGPYTFGQGTKLEIK
notes: anti-IL-13, human IgG1
B4: M445 (antibody, V domains shown)
VH: QVTLKESGPVLVKPTETLTLTCTVSGFSLSTYGMGVGWIRQPPGKALEWLAHIWWDDVKRYNPALKSRLTISKDTSKSQVVLTMTNMDPVDTATYYCARMGSDYDVWFDYWGQGTLVTVSS
VL: EIVLTQSPATLSLSPGERATLSCRASKSISKYLAWYQQKPGQAPRLLIYSGSTLQSGIPARFSGSGSGTDFTLTISSLEPEDFAVYYCQQHLLGPYTFGQGTKLEIK
notes: anti-IL-13, human IgG1
B5: M447 (antibody, V domains shown)
VH: QVTLKESGPVLVKPTETLTLTCTVSGFSLSTYGMGVGWIRQPPGKALEWLAHIWWDDVKRYNPALKSRLTISKDTSKSQVVLTMTNMDPVDTATYYCARMGSDYDVWFDYWGQGTLVTVSS
VL: EIVLTQSPATLSLSPGERATLSCRASKSISKYLAWYQQKPGQAPRLLIYSGSTLQSGIPARFSGSGSGTDFTLTISSLEPEDFAVYYCQQQDIGPYTFGQGTKLEIK
notes: anti-IL-13, human IgG1
B6: M446 (antibody, V domains shown)
VH: QVTLKESGPVLVKPTETLTLTCTVSGFSLSTYGMGVGWIRQPPGKALEWLAHIWWDDVKRYNPALKSRLTISKDTSKSQVVLTMTNMDPVDTATYYCARMGSDYDVWFDYWGQGTLVTVSS
VL: EIVLTQSPATLSLSPGERATLSCRASKSISKYLAWYQQKPGQAPRLLIYSGSTLQSGIPARFSGSGSGTDFTLTISSLEPEDFAVYYCQQHVGGPYTFGQGTKLEIK
notes: anti-IL-13, human IgG1
B7: M444 (antibody, V domains shown)
VH: QVTLKESGPVLVKPTETLTLTCTVSGFSLSTYGMGVGWIRQPPGKALEWLAHIWWDDVKRYNPALKSRLTISKDTSKSQVVLTMTNMDPVDTATYYCARMGSDYDVWFDYWGQGTLVTVSS
VL: EIVLTQSPATLSLSPGERATLSCRASKSISKYLAWYQQKPGQAPRLLIYSGSTLQSGIPARFSGSGSGTDFTLTISSLEPEDFAVYYCQQHVWGPYTFGQGTKLEIK
notes: anti-IL-13, human IgG1

The target of the experiment is IL-13 (Homo sapiens (Human), UniProt P35225 35-146, limits assumed). Nature of the experiment: Biacore. Background: Surface plasmon resonance follows binding to a sensor surface in real time, without labels.
IL-13, sequence (P35225 35-146 limits assumed): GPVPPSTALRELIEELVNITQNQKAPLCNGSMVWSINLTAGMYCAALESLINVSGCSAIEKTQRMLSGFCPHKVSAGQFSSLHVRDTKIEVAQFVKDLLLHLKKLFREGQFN
A word on the Kd: it is the concentration at which binding is half-saturated. Read a high Kd as weaker binding. One may read the koff as the first-order rate constant of dissociation. Read a low koff as a long-lived complex. For orientation: kon means a measure of how fast the partners come together. Low values mean slower complex formation, high ones faster complex formation. Regarding B1, the affinity, expressed as Kd, was 0.044 nM; the koff worked out at 4.7e-05 s⁻¹; the kon was 1.06e+06 M⁻¹ s⁻¹.
B2 showed a Kd of 0.754 nM, an off-rate (koff) of 0.000944 s⁻¹ and an on-rate constant (kon) of 1.25e+06 M⁻¹ s⁻¹.
B3: binding was characterised by a dissociation constant (Kd) of 0.088 nM, the koff was 7.8e-05 s⁻¹ and the kon is 880000 M⁻¹ s⁻¹.
The like results for B4 were, in that order, 0.262 nM, 0.000291 s⁻¹ and 1.11e+06 M⁻¹ s⁻¹.
Take B5: the Kd worked out at 0.055 nM, the off-rate (koff) was 5.4e-05 s⁻¹ and the kon came to 980000 M⁻¹ s⁻¹.
Consider B6, for which the equilibrium dissociation constant (Kd) amounted to 0.345 nM, the koff came to 0.000465 s⁻¹ and the on-rate (kon) was found to be 1.35e+06 M⁻¹ s⁻¹.
Turning to B7, the Kd came to 0.184 nM, the koff was determined as 0.00022 s⁻¹ and the on-rate (kon) came out at 1.2e+06 M⁻¹ s⁻¹.
